Data from a protein production outcome set (Wang et al. 2014).

Test: label from the status in PepcDB records

## MEQIILDIIEFLKQFSYFGVVLALTFEFIPAEVVLPMVGYWVYEGDMNFWLAVLAGTLGGTTGPLTLYALGYYGGRPLLIKYGKYFFIKEEQIQKADDFFEKYGPVVAFVGRFVPGVRTLISVPCGMAKMNIWKFSIYTFVAMFPLTTLYVYFGMKLGPHWEKAADVVGQYMLPILGGVILIVASIFVYKYMKKRNKTESI
  protein production: not failed

## MEQKQQSERLGTEAIPKLLRSLSIPAMIGMFVMALYNVVDTIFISYAVGIEGVAGVTIAFPIMMIMMSMAGALGIGGASVISRRLGERRGEEANQVFGNILTVILVLSVIGFISAFTLLGPALQLFGATSVTQGYATDYLFPILLGSIFFFFAFAANNIIRSEGNATFAMVTMIVPAVLNILLDVLFIFGLNMGVLGASIATVIAQASVTGLVLRYFLTGKSTLSLHWSDLRMKGSVIKEVCLVGLPAFVQQSSASLMMIAINSMLLRFGSDFYVGVFGLVQRIMMFVMMPMMGIMQAMQPIVGYNYGAKQYSRLRETVMLGFKVATIFSIGIFALLMLFPEALLRVFTADREVIQAGVSAMHILFCVTFLIGAQIVAGGLYQSLGKPKQALILSLSRQIIFLIPLVLILPHIFGLSGVWWAFPIADVLSFILTVVLLYRDRNVFFLKTKEERELDLVKTASST
  protein production: failed

## MEQLSDSDHRDSADATTSSCQSTTAEDGQCGGGGEAMARGLSAMLESVIKDFDSKALDTLNSQDELSGSLDRLVQDYAQINPIDPIKFLNHYIAIGLTKLLKN
  protein production: failed

## MEQNNIKEQLISFFNQACSTHQERLDFICSTRESDTFSSVDVPLEPIKNIIEITKDENQQIEITKIAVNNIKTLSSVGATGQYMASFFSTNSEPAIIFCVIYFLYHFGFLKDNNKKQIIKKAYETIADNIADYLNEN
  protein production: not failed

## MEQPMKPTVIITGASSGVGLYGAKALIDKGWHVIMACRNLDKTQKVADELGFPKDSYTIIKLDLGYLDSVRRFVAQFRELGRPLKALVCNAAVYFPLLDEPLWSADDYELSVATNHLGHFLLCNLLLEDLKACPDADKRLIILGTVTANSKELGGKIPIPAPPDLGNFEGFEAGFKKPIAMINNKKFKSGKAYKDSKLCNMLTTRELHRRFHQETGIVFNSLYPGCVADTPLFRNHYSLFRTIFPWFQKNVTKGYVSQELAGERVAMVVADDKFKDSGVHWSWGNRQQAGREAFVQELSEQGSDAQKAQRMWDLSEKLVGLV
  protein production: failed

## MEQPYVYAYPQGSGPSGAPTPQAGGVVVDPKYCAPYPIDMAIVRKMMSLTDGNFVITDVNGNLLFKVKEPVFGLHDKRVLLDGSGTPVVTLREKMVSMHDRWQVFRGGSTDQRDLLYTVKRSSMLQLKTKLDVFLGHNKDEKRCDFRVKGSWLERSCVVYAGESDAIVAQMHRKHTVQSVFLGKDNFSVTVYPNVDYAFIASLVVILDDVNREDRAA
  protein production: not failed

## MEQRPYSLCLLRLSALGDITHVLPLVRTLQRERPQARLHWIIDTMGSKLMDGLDGIHFHVYDKHTGLRGMRALRAELTPLGHFDALLHMQVSLRANLLSAFVPAQRRIGYDHNRSKDLHGLFINERIPDNPGIHVLDAIGSFCEPLGLVQREVRWDLPVSEEARAWAWAQWNNDGRPVLMISPCSSHTHRNWQAKRYAAVAEHASAQGWRIVLCGGRSTLERQTADTILAQTQVPLLDMVGKDTLKQLPALLERADLVMTPDSGPMHIANALGKKVLGLHAASNPHRSGPYSDLRYCVNRYDAAAHKYLGKPSNMLKWGTKIESNGVMDLVTVEDAIAAFERYRADYAHH
  protein production: failed

## MEQYKLVLEGAKQLKWETNEIKDIQDDEIIVKTIAGSISIGAELPQYNGSDVTDPHPFYPRKTGYESYGEVIEVGNQVTHVNVGDKVVSFYGHETIGIVKAHKVIRVPSSIQPKIALLSILSCDAAKGVLKLNPRQDEKVLIIGMGVIGLLACYFLKYYVGIEHVDVVEPNKNRRDFAKKFGTKNIYDSEEKIIETYNYGFECSATNSGFHTLQKALKTNGKICILSDGNIEELTLTANFYQKELQIIGSSDGYDYQKHADWFFEEIGKTPFIEEIFQHEIHYTSLIQCFDELSLGIIKPLKVYVSYE
  protein production: failed

## MERDENYLRAKKRVENLKAFYIHLTVYILVNLMLFFINISSDSSKLWFLYPLAGWGIGIVIHALTTFPVGIFGKEWEERKIKEYMEKDK
  protein production: failed

## MERDTVLTATPTIDADLADATSCATPSRTAVSPLLPVLAALAAVVLWGGAFPAMKVAVQTLGTWQMMWARMVFALLLLVPLARRLAPARIERRDLPLLAGMALMQPCLYFLCESTALQLTTSSQAGVMAASMPLMMAVGGFLLGEKVSPRLWFGVGVSCIGVAWLTSSGGEGGGSAPDPFTGNLLELAAMACATGSSLCIGALISRGKGRWNALTLTGIQTLAGAVFFLPGAPGVIGGVADWSTEVLLAVVYLGGASSLGAFGLYNWALGHMPASRAGNFINLVPVAAIFFGWLLLGETLTTTQYLATGLVMGGVLMGTRAR
  protein production: failed

## MERGVDNWKVDCKCGTKDDDGERMLACDGCGVWHHTRCIGINNADALPSKFLCFRCIEL
  protein production: not failed

## MERHVNYTLIGGLFFLCLVCMVGFILWLGHLGLDDGKYYEYVVYTDKDLGGIATNSPINYKGIQVGNVIKVGFAKDKVGVVRLDLMIKSSVKIRKDSKVAVSSRGFMGLKFLALEQSHNEEFYGSGDKGERILIFKEGLMDRLSGDANQVVQEVMKAIRNVNRILDDENVEKFKHILASVDDLIANLDSRKTQFDSLISNANNLVSNVNNVALDVDKRLKQGQYDFKAMFTPLIMQAQLSLRNIDNFVEKGSALIDKFDANPYKTIFGERK
  protein production: failed

## MERKINRREKEKEYEGKHNSLEDTDQGKNCKSTLMTLNVGGYLYITQKQTLTKYPDTFLEGIVNGKILCPFDADGHYFIDRDGLLFRHVLNFLRNGELLLPEGFRENQLLAQEAEFFQLKGLAEEVKSRWEKEQLTPRETTFLEITDNHDRSQGLRIFCNAPDFISKIKSRIVLVSKSRLDGFPEEFSISSNIIQFKYFIKSENGTRLVLKEDNTFVCTLETLKFEAIMMALKCGFRLLTSLDCSKGSIVHSDALHFIK
  protein production: failed

## MERKKLIAKFVEIASEKMGKDLETVDEENTFKELGFDSIDVIDLVMFFEDEFALRIEDEEISKIRKVKDLIDIVIKKLEEIDDEVSEG
  protein production: not failed

## MERLAPAKVNLGLSVRFRREDGYHELHTLFAPFSLADRLVVEPVSSGLHFQGPYGRENLAYRAASLYLEAAGQPGGVRILLEKRIPEGAGLGGGSSDAAQVLLALQALYPAEVDLFALARTLGADVPFFLLGRGAEARGVGERLKPLALPPVPAVVFFPGLRVPTPLVYRAVRPEDFGPDLPVEAILEALARGEEPPYWNSLEGPAFRLFPELKEVRGRMRALGLRGVLMSGSGSAFFGLAEGPDHARRAAEALRAWGRAWAGTLGGGDAGSGPA
  protein production: not failed

## MERMMNKRILKGTLTAIAALMSAHAFAGQEVTVYTAFETDLLAKYKSAFEKENPDIEIKWVRDSTGIMTAKLLAEKDNPRAEVVWGLAGSSMALLKDQGVLKPYTPKGANELRANLNDPQAQQAWYGNDAFFNAVCFNEAVAKQLNLPKPQSWEDLTNPVYKGHIAMPNPASSGTGYMQVSAWLQNMGEDKAWDYMQRLDQNIAHYTHSGSKPCVQAGMGEVAIGISMATRGAKLKTQGAPLDVIVPNGIGWESEAVGLVKESDAAKRVVDWSVSKAANELYIESYPIVGHQDVSKQVPNYPNVEKVMAKMDFTQMGVDRARVLQTWSEKFDAKSEPKS
  protein production: failed

## MERQVLLSEPEEAAALYRGLSRQPALSAACLGPEVTTQYGGQYRTVHTEWTQRDLERMENIRFCRQYLVFHDGDSVVFAGPAGNSVETRGELLSRESPSGTMKAVLRKAGGTGPGEEKQFLEVWEKNRKLKSFNLSALEKHGPVYEDDCFGCLSWSHSETHLLYVAEKKRPKAESFFQTKALDVSASDDEIARLKKPDQAIKGDQFVFYEDWGENMVSKSIPVLCVLDVESGNISVLEGVPENVSPGQAFWAPGDAGVVFVGWWHEPFRLGIRFCTNRRSALYYVDLIGGKCELLSDDSLAVSSPRLSPDQCRIVYLQYPSLIPHHQCSQLCLYDWYTKVTSVVVDVVPRQLGENFSGIYCSLLPLGCWSADSQRVVFDSAQRSRQDLFAVDTQVGTVTSLTAGGSGGSWKLLTIDQDLMVAQFSTPSLPPTLKVGFLPSAGKEQSVLWVSLEEAEPIPDIHWGIRVLQPPPEQENVQYAGLDFEAILLQPGSPPDKTQVPMVVMPHGGPHSSFVTAWMLFPAMLCKMGFAVLLVNYRGSTGFGQDSILSLPGNVGHQDVKDVQFAVEQVLQEEHFDASHVALMGGSHGGFISCHLIGQYPETYRACVARNPVINIASMLGSTDIPDWCVVEAGFPFSSDCLPDLSVWAEMLDKSPIRYIPQVKTPLLLMLGQEDRRVPFKQGMEYYRALKTRNVPVRLLLYPKSTHALSEVEVESDSFMNAVLWLRTHLGS
  protein production: failed

## MERRLTTILAADLSGYSRLMAADEEGTVTRLRHLFADIVRPDLSREGGRLIKTMGDGMLVEFASPVAALRSAVAILQQVARDQVETAPDTRMLFRVGIHLGDVISDGDDILGDAVNIAARLESLATPGGICISRSVHDQVRGKVDAELIELGPQPVKNIPDPVEVWRVGAEGIACAAEKPAVRAELPAVVILPFDNMSADPEQDFLADGIVEDVTTELSRFRTLTVIARNSAFAYKGSHKDVRQIAEELGVRYVVEGSVRRAGDRLRATAQLIDARTGAHVWADRWDRTMADLFDLQDELTAAILSGVEPELGAHERNLARRKPTDSLTAWEMCQKGYSEFTRYTDEGYSQAHAYYTRAIAADPDFALPHALLARLAWVKVITGRTRDPAAEISTGLDHAAQAIERDDRLEIGYVALGVLLAITGREQDAADALDKAEALNPNNAVLHFGRCHACLFMQRLDCDRLERAARTALRLNPKDPMAWGFWFQLGNAFTFRDIDAAEPEALAAYETACRFANADYFVFMATALKHAKLGNRDKAAHYLAQARERYPALTAEFWRRAFRFPIWSRWVAADEPNIQLLIDLGLPQK
  protein production: failed

## MERVAVVGVPMDLGANRRGVDMGPSALRYARLLEQLEDLGYTVEDLGDVPVSLARASRRRGRGLAYLEEIRAAALVLKERLAALPEGVFPIVLGGDHSLSMGSVAGAARGRRVGVVWVDAHADFNTPETSPSGNVHGMPLAVLSGLGHPRLTEVFRAVDPKDVVLVGVRSLDPGEKRLLKEAGVRVYTMHEVDRLGVARIAEEVLKHLQGLPLHVSLDADVLDPTLAPGVGTPVPGGLTYREAHLLMEILAESGRVQSLDLVEVNPILDERNRTAEMLVGLALSLLGKRIF
  protein production: not failed

## MERYTKKNERFKAEEGKGSKKSRTFLTERERRALFNDRFFDLKNLIPNPTKGGEASIVQDGIVYINELQRLVSELKYLVEKKKCGARHNNIEVDNKNTIYGTSKIEHPFSKNKNTFNCLIRTLRFVHHF
  protein production: failed

## MESAPSRLDGDRPRLSVRLLGPLEILRDGVPLALPASRKLRALLAYLALAPHAVGRGRLCELLWDVPNDPRGELRWCLSKLRAALDTPDRRRVTTQGDAVALDLDGCLVDALEISQAAAQGIATLDVERLQGLAGLFAGDLLDGLELERSPHFDSWLVAQRRRFDAYHAAVLEQLAASLPADCDETVSRLDRWIELAPFDTRAHAALLASLARRGEIGAAEQHLASAERLFQSEDLDFAPLRQAWRSIRDQRASHQAQPAGLPTPSHLVAASGDTGPVEPSHASLAVMPFVDESGARGGLADGFTHDIITRLAKLRDFFVIARGSVFALAEKAIAPEEAGRKLGVDYVASGTVRSLTGRLIVSVELVEVRTARIVWAETFERRPHDLFAVLDDIGDSIVSSISAEIETVERNRAMLKAPNSLNAWEAYHRGLWHMYRFTQAENEQARHFFDKALQLDPTFARAYAGLSFTHWQNAFQRWGDRDRESALAYESAGHSLLVDDHNPAAHWAMGRALWLRGEQDGSLAELERAVDLSPNFALGHYALSFVHSQSGDPQAAIGSSDHSRHLSPFDPLLFGMLGSRAMSHVRLGQFEEAAEWALKAAARPNAHTIILAIAAHCLALAGRLDEARGFAAAIRKTLPDYRADDFIGTFRFDPDAEALFRQGARRIGFS
  protein production: failed

## MESESSGLSFPLGLYDAIIAHARSVFPEECCGLVAAPAGGAPIRVIPMENALHSPVRYEMNPKEQFQVQKNLRREGLEMWAIYHSHPVTRPYPSETDIRLAFYPELYYLLTSLAEDPPPLKAYTIQNGVVREIPLKVSPGES
  protein production: failed
